# Measurements published in the supplement of paper PMC10065799, “High-throughput profiling of sequence recognition by tyrosine kinases and SH2 domains using bacterial peptide display” (eLife, 2023).
# Target: Fyn (UniProt P06241)
# Assay: phosphorylation enrichment, bacterial display (enrichment ratio); higher = better substrate or ligand; peptides without Tyr show the background
# 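Note: 11-residue human phosphosite peptides and single-mutation variants displayed on the E. coli surface, counted by deep sequencing, each peptide's frequency after selection divided by its frequency in the unselected input library; frequency after pTyr selection over input frequency; kinase dosed for 20-30% of maximal phosphorylation in three min.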
# Fyn, sequence (P06241 whole entry, looked up): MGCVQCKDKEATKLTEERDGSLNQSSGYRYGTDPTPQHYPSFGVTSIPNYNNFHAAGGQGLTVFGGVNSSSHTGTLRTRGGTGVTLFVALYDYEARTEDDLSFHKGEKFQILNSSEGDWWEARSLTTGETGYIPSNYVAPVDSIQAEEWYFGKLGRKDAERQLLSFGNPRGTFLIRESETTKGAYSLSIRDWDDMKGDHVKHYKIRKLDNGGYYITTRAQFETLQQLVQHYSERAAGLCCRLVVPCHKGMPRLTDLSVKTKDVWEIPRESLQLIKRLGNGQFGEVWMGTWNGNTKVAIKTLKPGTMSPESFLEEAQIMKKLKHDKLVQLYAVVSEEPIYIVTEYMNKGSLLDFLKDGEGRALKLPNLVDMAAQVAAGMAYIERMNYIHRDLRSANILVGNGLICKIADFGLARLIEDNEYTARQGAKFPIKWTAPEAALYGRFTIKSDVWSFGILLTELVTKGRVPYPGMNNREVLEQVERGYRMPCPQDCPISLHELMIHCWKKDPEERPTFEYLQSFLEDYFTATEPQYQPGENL
row,Sequence,phosphorylation enrichment
1,AKAEIYEMRPL [COX10_Y97],11.4
2,FDEFRYRSVIK [CFTR_Y517_YF],0.41
3,SARSAYQEAMD [SFN_Y151],0.495
4,VDTFWYKFLKP [EPM2A_Y86_R91P],0.388
5,QQLQGYVPSNF [FRK_Y99_I100V_YF],0.479
6,MAFDRYAAICS [OR8H2_Y123_H120Y_YF],0.479
7,TINPIYEHVGY [CHN1_Y143],14.7
8,VYSTDCYRVGG [NTRK2_Y706_Y706C],2.56
9,GRQVIYTENER [GPR143_Y231_G229V],0.407
10,RPDSPYSRLHD [DOK2_Y271_P274L],0.464
11,SVVVSYEPPEV [TP53_Y220_P219S],0.587
12,YEPDAYDDLDQ [ELP5_Y302],0.496
13,QRAADYFSQQM [GBP6_Y333_YF],0.546
14,RDEHGYISRCF [HSPB1_Y133_Q128R],0.825
15,VITTLYIGFLG [KCNQ1_Y267_L262V],1.34
16,STGRSYAGVAV [KLHL3_Y577],0.345
17,KNNDGNIDFAE [MCFD2_Y135_Y135N_YF],0.558

row,Sequence,phosphorylation enrichment
1,EKNANYKEGTF [CLRN1_Y171_I168N_YF],0.452
2,EKMWTYMPSAE [GRIA4_Y695_R697P],0.377
3,TTKGSYSLYVR [HCK_Y180_S183Y],0.462
4,FYLGAYDRFLP [SLC22A5_Y486_V481F],2.4
5,FEEDSYVTRSQ [RET_Y905_K907T_YF],0.5
6,DLAGRYYALRS [CKB_Y173_K177R],0.484
7,ARGTRYRYVSQ [UCN3_Y95],0.492
8,PGIRMYQVQFN [LRFN1_Y454_YF],0.504
9,LEVPLYKNGVK [CPS1_Y1069_A1065E],0.759
10,QTEAQYRFIYM [PTPN11_Y511],0.634
11,RLLVVYSWTQR [HBB_Y36_P37S],0.864
12,KACKHYLTKRT [ZBTB5_Y118_T121K],0.595
13,STSKTYVISRT [RBBP6_Y87],0.416
14,VDGSLYETHPQ [HK1_Y417_K418E],1.13
15,KFMVGYEMLAK [GALT_Y339_Q344K],0.507
16,IIEDPYFGNDF [ACP1_Y132_S137F_YF],1.11

# Test system: Fer (mouse)
# Assay: as above
row,Sequence,phosphorylation enrichment
1,AKAEIYEMRPL [COX10_Y97],6.76
2,FDEFRYRSVIK [CFTR_Y517_YF],0.409
3,SARSAYQEAMD [SFN_Y151],0.402
4,VDTFWYKFLKP [EPM2A_Y86_R91P],0.515
5,QQLQGYVPSNF [FRK_Y99_I100V_YF],0.584
6,MAFDRYAAICS [OR8H2_Y123_H120Y_YF],0.597
7,TINPIYEHVGY [CHN1_Y143],22.4
8,VYSTDCYRVGG [NTRK2_Y706_Y706C],0.824
9,GRQVIYTENER [GPR143_Y231_G229V],0.382
10,RPDSPYSRLHD [DOK2_Y271_P274L],0.65
11,SVVVSYEPPEV [TP53_Y220_P219S],0.515
12,YEPDAYDDLDQ [ELP5_Y302],0.663
13,QRAADYFSQQM [GBP6_Y333_YF],0.491
14,RDEHGYISRCF [HSPB1_Y133_Q128R],0.734
15,VITTLYIGFLG [KCNQ1_Y267_L262V],0.605
16,STGRSYAGVAV [KLHL3_Y577],0.31
17,KNNDGNIDFAE [MCFD2_Y135_Y135N_YF],0.525

row,Sequence,phosphorylation enrichment
1,EKNANYKEGTF [CLRN1_Y171_I168N_YF],0.397
2,EKMWTYMPSAE [GRIA4_Y695_R697P],0.396
3,TTKGSYSLYVR [HCK_Y180_S183Y],0.474
4,FYLGAYDRFLP [SLC22A5_Y486_V481F],1.22
5,FEEDSYVTRSQ [RET_Y905_K907T_YF],0.529
6,DLAGRYYALRS [CKB_Y173_K177R],0.477
7,ARGTRYRYVSQ [UCN3_Y95],0.493
8,PGIRMYQVQFN [LRFN1_Y454_YF],0.423
9,LEVPLYKNGVK [CPS1_Y1069_A1065E],0.66
10,QTEAQYRFIYM [PTPN11_Y511],1.09
11,RLLVVYSWTQR [HBB_Y36_P37S],0.565
12,KACKHYLTKRT [ZBTB5_Y118_T121K],0.668
13,STSKTYVISRT [RBBP6_Y87],0.396
14,VDGSLYETHPQ [HK1_Y417_K418E],9.06
15,KFMVGYEMLAK [GALT_Y339_Q344K],0.349
16,IIEDPYFGNDF [ACP1_Y132_S137F_YF],0.757
